# Measured values as given in patent publication US20050221292A1.
# Residue numbers refer to the chain shown, from its start.
# Experiments:
# [1] = target: T1, F(MMP#2): Sendai virus F protein with the activation site modified to PLG↓MTS (UniProt P04855)
# T1 sequence: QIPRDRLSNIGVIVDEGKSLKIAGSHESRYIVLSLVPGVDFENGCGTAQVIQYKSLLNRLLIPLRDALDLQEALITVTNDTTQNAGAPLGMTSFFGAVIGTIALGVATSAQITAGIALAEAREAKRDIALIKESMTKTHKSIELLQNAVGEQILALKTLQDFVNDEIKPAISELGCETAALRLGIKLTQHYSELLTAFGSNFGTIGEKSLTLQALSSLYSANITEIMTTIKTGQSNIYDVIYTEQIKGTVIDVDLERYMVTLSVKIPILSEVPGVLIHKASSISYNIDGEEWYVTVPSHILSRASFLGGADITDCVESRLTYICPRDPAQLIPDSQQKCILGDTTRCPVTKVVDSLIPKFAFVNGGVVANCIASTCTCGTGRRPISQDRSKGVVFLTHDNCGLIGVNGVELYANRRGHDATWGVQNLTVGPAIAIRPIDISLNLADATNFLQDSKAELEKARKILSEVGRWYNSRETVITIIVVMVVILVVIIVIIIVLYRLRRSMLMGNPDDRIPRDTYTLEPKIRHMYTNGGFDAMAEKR
# [2] = target: T2, Fct14(MMP#6)/Linker/HN chimeric protein (UniProt P04855)
# T2 sequence: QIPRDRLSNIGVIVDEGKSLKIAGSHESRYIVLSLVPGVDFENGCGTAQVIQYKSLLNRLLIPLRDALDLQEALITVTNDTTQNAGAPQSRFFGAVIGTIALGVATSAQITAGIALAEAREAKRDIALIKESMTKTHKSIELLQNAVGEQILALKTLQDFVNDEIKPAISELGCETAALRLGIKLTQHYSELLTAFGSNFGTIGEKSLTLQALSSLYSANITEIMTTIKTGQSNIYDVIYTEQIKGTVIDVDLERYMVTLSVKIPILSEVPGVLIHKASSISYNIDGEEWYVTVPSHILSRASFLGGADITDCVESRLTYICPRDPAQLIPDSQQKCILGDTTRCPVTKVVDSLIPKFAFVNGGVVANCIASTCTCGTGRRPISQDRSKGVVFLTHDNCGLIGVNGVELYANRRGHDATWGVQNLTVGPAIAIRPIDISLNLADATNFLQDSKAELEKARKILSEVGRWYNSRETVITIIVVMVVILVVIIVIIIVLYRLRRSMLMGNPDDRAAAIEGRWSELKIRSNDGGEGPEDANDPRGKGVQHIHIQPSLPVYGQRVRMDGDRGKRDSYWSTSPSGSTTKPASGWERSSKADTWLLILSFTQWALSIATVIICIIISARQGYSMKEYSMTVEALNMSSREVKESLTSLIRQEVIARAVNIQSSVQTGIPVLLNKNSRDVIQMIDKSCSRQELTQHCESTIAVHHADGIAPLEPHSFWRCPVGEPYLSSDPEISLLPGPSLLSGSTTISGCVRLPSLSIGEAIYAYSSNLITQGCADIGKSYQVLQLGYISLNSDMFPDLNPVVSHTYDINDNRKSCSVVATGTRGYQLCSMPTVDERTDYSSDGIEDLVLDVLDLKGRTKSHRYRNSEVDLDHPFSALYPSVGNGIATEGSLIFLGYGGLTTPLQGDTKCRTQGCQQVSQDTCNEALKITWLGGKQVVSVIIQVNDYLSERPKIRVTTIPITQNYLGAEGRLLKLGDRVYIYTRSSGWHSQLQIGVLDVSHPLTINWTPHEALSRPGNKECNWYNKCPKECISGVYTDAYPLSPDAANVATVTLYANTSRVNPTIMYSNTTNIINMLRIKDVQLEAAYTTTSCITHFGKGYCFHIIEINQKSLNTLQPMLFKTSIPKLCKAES
# [3] = target: T3, F(uPA): Sendai virus F protein with the activation site modified to VGR (UniProt P04855)
# T3 sequence: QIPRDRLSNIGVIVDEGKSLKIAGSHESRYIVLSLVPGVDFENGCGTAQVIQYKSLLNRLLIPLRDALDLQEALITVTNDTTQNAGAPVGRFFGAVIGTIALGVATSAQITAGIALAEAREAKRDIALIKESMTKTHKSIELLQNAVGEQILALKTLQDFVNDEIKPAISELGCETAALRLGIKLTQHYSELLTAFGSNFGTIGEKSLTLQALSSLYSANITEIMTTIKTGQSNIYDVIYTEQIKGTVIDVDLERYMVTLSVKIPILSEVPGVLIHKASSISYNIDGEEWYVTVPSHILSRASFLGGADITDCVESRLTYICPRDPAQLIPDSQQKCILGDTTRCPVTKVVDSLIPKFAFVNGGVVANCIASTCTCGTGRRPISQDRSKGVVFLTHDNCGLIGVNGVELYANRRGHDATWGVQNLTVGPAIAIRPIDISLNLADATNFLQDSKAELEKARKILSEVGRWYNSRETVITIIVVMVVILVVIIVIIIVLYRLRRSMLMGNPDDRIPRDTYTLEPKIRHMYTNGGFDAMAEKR
# [4] = target: T4, Sendai virus (SeV) F protein, wild type (unmodified F) (UniProt P04855)
# T4 sequence: T3 sequence with V89Q, G90S
substance,measurement,setting,value
active MMP-9 (COSMO BIO),cleavage of F0 to F1 (Western blotting of protease-treated viral particles),[1],MMP-9 cleaved that of the M-deficient SeV vector having the MMP#2 sequence inserted into the F protein
type IV collagenase (Clostridium histolyticum) (ICN),"fusogenicity (syncytium formation) relative to the MMP#2 chimera, against concentration of added collagenase",[2],MMP#6 was found to have two to three times higher fusogenicity compared to MMP#2
trypsin (Gibco-BRL),cleavage of F0 to F1 (Western blotting; data not shown),[3],"for the M-deficient SeV vector into which uPA sequence is inserted, cleavage of F1 was observed in the presence of trypsin when the degradation time was prolonged to four hours"
same,cleavage of F0 to F1 (Western blotting of protease-treated viral particles),[4],trypsin cleaved the F protein of the F-unmodified M-deficient SeV vector
uPA (urokinase-type plasminogen activator),cleavage of F0 to F1 (Western blotting of protease-treated viral particles),[3],uPA cleaved that of the M-deficient SeV vector having the uPA sequence inserted into the F protein
same,syncytia formation in LLC-MK2 (exogenous protease),[3],"upon further modification of the F protein, showed the formation of syncytia, multinuclear cells, in the presence of uPA"
